Assay: soluble on expression in E. coli; label from the status in PepcDB or PDB records

Sequence | soluble on expression in E. coli
MGSDKIHHHHHHMAAGRDTALLMMNLMNAPVPLSPALELALPVDTAVVGVGYFGSLHALCYSRLPGSRLQALIDPDPITQFLAEHLGVPWFPGVAELPSTIRAVSVATPVAMHFGLTRSLLQQGLDVLLEKPIAETAAQATELRMVAEANQCILQIGHIERFNPAYTAGGTLLPFARTVRSVRTTRHPPRSSALDVVIDLMIHDLDLILHSLDSSVVELRASGRSCGLTAIDEAEVELTFSNGCRVYLDAHWGRDTEQDARCMVAELENDETWVIDFRRRMTYRKEPGSSTGPLPADGHTLPFPMQRIQEDTLSLQLAAFLDACRNRSLPRVTPAEGNAALELAHCIRQQILRPCP | not soluble
MGSDKIHHHHHHMDTIAESIQKKAYELGYEKCGIIPINLIDEYADKFNERMEKIPKSKMFYKSQERLIKPKEIYPWAKSVVVLTSVYGKYKVPQELNGHIAKAYLFDTRVDKNTKEYQNNRALEEYMQELGLKVETNQKFGVVGMRWAALQAGVGIIRRNNFLYTESGSWVHLEAWVTDRKMELKETNNVKKCPKSCNRCIMSCPTKSLSEPYTMSPTECVSFLTTFGGRNLPEEPLRKKFGDCIYGCDICQDACPMNKGKWKDEEEFPGLAELAPSLTPENILNMDEDFYREKVQPKFFYLSPEDLWKWKIDALCYIGNNYSESYKPLLVNACNNANNKISEMANLICSELSLQ | not soluble
MSLSGSDYCFSTLGCSELSLHETADLTERHGIANVELRALSGTIDLIAALTAEFGTPARFAAFLSERNLRVAALNTSMRLFGSDSLSEIEPFIDWAEAANIAYLRIFDGGKKIGPEDLDRSAALLDNWQAVRQTRGLNVDLMIETHDALSDFEQLLTFIEQVPAARILWDTHHTWAKGSNLKMVWRQIERNVVHLHVKDSVMDSDRERRYVLPGQGEFPISELLSLILPNERQIPLSLEWERHWHPQLPPLADALKAAHSWWRQGVSEGHHHHHH | soluble
GPGSMLKCSLCYLASKVTAGNAKNQAGHPRRRAKLFHVVPGTPVTPFEKLKEQRRRFGQDRHSRLPEYRPGNNVRMDPNTYTLYATKKGVMTIRESRINPKYKWLDVEPDIQKVYRSRELRRALQEREMASMAVGENSNYRVELDLLLEPDWRERVMHVPKATERFKDPNLFTRGVVNELSPLDRYSYT | not soluble
MGSDKIHHHHHHMLLSMQGICKSFNGIPALRAASLEVGEAEVMALVGQNGAGKSTLIKILTGAYRRDEGAVVFAGEGVSFSMPAESQARGIATIYQEINLAPQRSVAENIYLSREPRRFGLIDRRAMRDGAAAVLRAFNLEIDVDQPVAGFSAATRQMVAIARAVTQKARLVIMDEPTSSLDEREVGILFDTIRTLKRGGVSVVFIGHRLEELYRICDRVTIMRDGKTVATAAMADMPKLALVRHMLGKELAAFEAIAKDADEGAQRPVRLSVRNAGAGVRVRDVSLTVREGEISGLAGLLGSGRTETANLIFGADRLQRGEIRYNGEARAYRQPADAIADGIGLVAEDRKVDGIIPDMSIRENMTLALLPKLARAGIVDRARQDEIVERYITALAIKCTSPDQPIKELSGGNQQKVLLGRWLCTDPKLLIVDEPTRGIDIGAKSEILRLLRRLADEGLGVLMISSELEELLAAADRVTVLSDGTSVAVLPRKELSEAALFAAMAHQVE | not soluble
MGSDKIHHHHHHIRSATACSSTDNVVSMKLTEHIGRLTVMGLMLPKHRPFFKERMGMNVQKEGVGEPTMAFTPTQRLHLGAEAEVWKGEWFGKAAVRKQRRPRSWRHPNLDHRLGVRRMISEARLLIRTRKAGLSVPSVWDLDYEGGQLIIEHLEGRPLIDVLNDPATEKEVAKTTLHRVGHSVRRLHREATTHGDLSSNNILIEGEHVHLIDFGLASIEYDVERFGIDLHVLDEILGASHPQWEGAIDWVIEGYLSAEEELGPAPALQGGSVPSAKEVHTRLEDIRTRVRYH | not soluble
MSTVVSEGRNDGNNRYSPQDEVEDRLPDVVDNRLTENMRVPSFERLPSPTPRYFGSCKWFNVSKGYGFVIDDITGEDLFVHQSNLNMQGFRSLDEGERVSYYIQERSNGKGREAYAVSGEVEGQGLKGSRIHPLGRKKAVSLRCFRCGKFATHKAKSCPNVKTDAKVCYTCGSEEHVSSICPERRRKHRPEQVAAEEAEAARMAAEKSSPTTSDDDIREKNSNSSDE | not soluble
MGSDKIHHHHHHMNNKEIFEELATLARQPAIWFAARSFYGHGGNQRPDNSRRLLRVLAETDNNLTAGAIADILAIRPASVTQIIKKLENDEYIQRVRDESDARVVRVKITSKGRKQLELLEDKQSDFQTELFDVFDDDERQRFGESLRKLNEHVMSDEYLDNMRSKMDKHMRFGFDHFVNVSNARKFHENQTGYLKKMRQHQQQSPFNDEDNEGI | not soluble
MERGVDNWKVDCKCGTKDDDGERMLACDGCGVWHHTRCIGINNADALPSKFLCFRCIEL | soluble
MSKKKVQNTNKKMKECWLTPIPQNVETVNMTVSFKIDEKDVGKPANEVIRINENSMVSFLSTNSFYNGLILSDKIVKVNGASGNISKYQTELMKGETCSVEVTRRKNIIPATRERLKKSGCVLRRDNTCFVIEVEKTSAMKSATVGVTVTYIQKRGIVTRIEPSSLASIFFGRGDLIMDINEESILNAEKNDDFIREKLSGILKGEKVTFLVERPVSVESANTLRHLIESVAPDPDVKMANDAICIGRNASNMHYNVLKKLQPKSILSRDVFKGKNPREKKPGKKLSKEKDNTIKISTATSTANISTDVAEDEIDNLKNVVTKSHAVRSGDEEEERGAFDDE | not soluble
MSLYSVISKILNFILVKMSKSLYVIGKDNIPKDSKYVVTCTHESYNEVIMLGMALYPNQIHYMAKKELFKNKWIGKFLTSLNAFPVDRENPGPSTLKRPINLLKDNKTVGIFPTGSRTSQEGAPLKRGASTIAMLSKSPILPVAYVGPTKIHGLLTGQAYINIGKPIDINDLPKDLKRNERIDYITKEIETRTAKLQQELHEIVKSEGHHHHHH | soluble
MAAPKLGFFEKIANLTGALYRHQHAQFPRRFAILKAVGKHELAPPRQADWPAIKADWAKVQSFIQTGGYKNLSIREGLVYTAVTLEVVFWFFVGEMIGRRYIFGYLVPADYVSKSTKKTVKEQEALAALEN | not soluble
MSTNFEKHFQENVDECTLEQLRDILVNKSGKTVLANRFRALFNLKTVAEEFATKPEEAKKAIEYIAESFVNDKSELLKHEVAYVLGQTKNLDAAPTLRHVMLDQNQEPMVRHEAAEALGALGDKDSLDDLNKAAKEDPHVAVRETCELAINRINWTHGGAKDKENLQQSLYSSIDPAPPLPLEKDATIPELQALLNDPKQPLFQRYRAMFRLRDIGTDEAILALATGFSAESSLFKHEIAYVFGQIGSPAAVPSLIEVLGRKEEAPMVRHEAAEALGAIASPEVVDVLKSYLNDEVDVVRESCIVALDMYDYENSNELEYAPTAN | soluble
MGHHHHHHSGEVKPEVKPETHINLKVSDGSSEIFFKIKKTTPLRRLMEAFAKRQGKEMDSLRFLYDGIRIQADQTPEDLDMEDNDIIEAHREQIGGMRTYLDLLQHVLDHGVDRDDRTGTGTRSVFGYQMRFDLEEGFPVLTTKKLHLRSIIHELLWFLKGDTNIAYLKENGVTIWDEWADENGDLGPVYGYQWRSWPAPDGRHIDQIANLLKMLHTNPQSRRLIVSAWNPALVDEMALPPCHCLFQFYVANGRLSCQLYQRSADIFLGVPFNIASYALLTMMIAQVTGLKPGEFIHTLGDAHIYSNHFEQARLQLTRTPKKLPVMHINPDVKDLFAFRFEDFRLDGYEADPTIKAPIAV | soluble
MGSDKIHHHHHHMREKLFWILKKYGVSDHIAKAFLEIPREEFLTKSYPLSYVYEDIVLVSYDDGEEYSTSSQPSLMALFMEWVGLDKGMRVLEIGGGTGYNAAVMSRVVGEKGLVVSVEYSRKICEIAKRNVERLGIENVIFVCGDGYYGVPEFSPYDVIFVTVGVDEVPETWFTQLKEGGRVIVPINLKLSRRQPAFLFKKKDPYLVGNYKLETRFITAGGNLGNLLERNRKLLREFPFNREILLVRSHIFVELVDLLTRRLTEIDGTFYYAGPNGVVEFLDDRMRIYGDAPEIENLLTQWESCGYRSFEYLMLHVGYNAFSHISCSI | not soluble
MYGPGYAPYYGSPYGDPCYGPAYGPAYGPTYVQPIAQPVYVHDTRAEEACCAGACCMALFCCCAMNS | soluble
SSSTSHSSLKSPSHMEKYPQKEKTKEDLDSRSNLHLPETKFSELSKLKNDDMEKANHIESVIKSNLPNCANSDTDFMGLFKSSRYDPSISFSGMSLSDTMTLRGSVQNKLNPRPGKVVIYSEPDVSEKCIEVFSDIQDCSSWSLSPVILIKVVRGCWILYEQPNFEGHSIPLEEGELELSGLWGIEDILERHEEAESDKPVVIGSIRHVVQDYRVSHIDLFTEPEGLGILSSYFDDTEEMQGFGVMQKTCSMKVHWGTWLIYEEPGFQGVPFILEPGEYPDLSFWDTEAAYIGSMRPLKMGGRKVEFPTDPKVVVYEKPFFEGKCVELETGMCSFVMEGGETEEATGDDHLPFTSVGSMKVLRGIWVAYEKPGFTGHQYLLEEGEYRDWKAWGGYNGELQSLRPILGDFSNAHMIMYSEKNFGSKGSSIDVLGIVANLKETGYGVKTQSINVLSGVWVAYENPDFTGEQYILDKGFYTSFEDWGGKNYKISSVQPICLDSFTGPRRRNQIHLFSEPQFQGHSQSFEETTSQIDDSFSTKSCRVSGGSWVVYDGENFTGNQYVLEEGHYPCLSAMGCPPGATFKSLRFIDVEFSEPTIILFEREDFKGKKIELNAETVNLRSLGFNTQIRSVQVIGGIWVTYEYGSYRGRQFLLSPAEVPNWYEFSGCRQIGSLRPFVQKRIYFRLRNKATGLFMSTNGNLEDLKLLRIQVMEDVGADDQIWIYQEGCIKCRIAEDCCLTIVGSLVTSGSKLGLALDQNADSQFWSLKSDGRIYSKLKPNLVLDIKGGTQYDQNHIILNTVSKEKFTQVWEAMVLYT | soluble
MSLADGKTYKIGAAVYGLKGQFMQNWVRELKEHPAVKDGTVKITVFDGNYDALTQNNQIETMITQHYDAIIFVPIDTKAGVGTVARAMENDIPVIASNTRVAGNKVPYVGNDDVEGGRLQAQAMVDKLKGKGNVVIIQGPIGQSAQIDREKGELEVLSKHPDIKIIEKKTANWSRAEAQTLTEDWLNAHQNGGISGIISQNDDMALGALQAVKSRNLKPADVPITSIDGMPDAIQAAKKNEITTFLQDAQAQSQGALDVALRALAGKDYKPQSVIWQRYAKDVKWGDGTDEGHHHHHH | soluble
MKIVIAPDSFKESLTAQQVAEAIKRGFQQSIADVECLLCPVGDGGEGTVDAIRHSLDLEEKCLQVTGSFGQKEVMRYFQKEQLALFEVADLVGLGKIPLEKRNPLQIQTRGIGELIRHLISQEIKEIYIGVGGTASNDGGIGIAAGLGYQFYDEDGNALPACGQSLLNLASVSTENRYKIPEDVHIRILADVVSPLCGHQGATYTFGKQKGLDSTMFEVVDQAIQDFYEKVSPATLKLKGAGAGGGIAGGLCAFAQASIVSGIDTCLDLIDFDKKVSDVDLVIVGEGRLDRQSLAGKAPIGVAKRTPVGVPVVAICGSLVEDLPSLPFENIQAAFSILEKSEPLEDSLKNASLYLEHTASNIGHLLNMPKI | soluble
MSKKDVTKVVLDESDIPKQWYNILADMPNKPAPYFSSKTGKPVTLDELQAIFPMELIQQENSQERWIDIPEEVREMYRQWRPSPLYRARALEKHLGTPARIYYKYEGTNATGSHKLNTSLPQAYYNKIAGIKRLSTETGAGQWGSALSLACNHFGLECTVYMVKVSYEQKPYRRSFMKTFGAQVYASPTNLTSSGRAILEKDPDCTGSLGIAISEAVEDAATHDDTNYALGSVLNHVCLHQTIIGLEAKKQLEYLDEYPDVVFACCGGGSNFAGIAFPFLMDKFKGTKVRAVAVEPTACPTLTKGVYAYDYSDTGKIGPLAKMYTVGHDFVPAGIHAGGLRYHGVSPIVSQLYEDKLIEAKAYGQSSVFEAAVIFARTEGIVPAPESSHAIRAAIDEALLCKESGEAKVILFNLSGHGYFDMAAYDNYFSGKLSDVDYSEEEIARSMKNLPKVD | soluble

Source: the DeepSol protein solubility set
